This experiment deals with T1, Stabilin CTD (C-terminal domain of stabilin-2, truncated intracellular region) (human, UniProt Q8WWQ8 2501-2551).
T1 sequence: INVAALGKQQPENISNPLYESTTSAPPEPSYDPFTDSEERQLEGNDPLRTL
Description: ITC. A general note: ITC needs no label: the signal is the heat of the interaction.

Results on one molecule are retold here after publication PMC5424802 (Intrinsically Disordered Proteins, 2013).

Molecule MSDKPDMAEIEKFDKSKLKKTETQEKNPLPSKETIEQEKQAGES (natural protein, not fully specified) [Thymosin β4] gave a dH of -1.75 kcal/mol.
